Conditions: Saccharomyces cerevisiae (strain ATCC 204508 / S288c), CD, reversible: yes, structure 1YCC
[1] = pH 3.25, Thermal, acetate 0.1 M
[2] = pH 3.75, Thermal, acetate 0.1 M
[3] = pH 4.25, Thermal, acetate 0.1 M
[4] = pH 4.75, Thermal, acetate 0.1 M
[5] = pH 7.5, 25 °C, GdnHCl, Tris-HCl 20 mM, NaCl 40 mM
[6] = pH 4.5, 25 °C, Thermal, acetate 0.1 M

Cytochrome c isoform 1 K79V, P00044, sequence (P00044 whole entry K79V, canonical isoform): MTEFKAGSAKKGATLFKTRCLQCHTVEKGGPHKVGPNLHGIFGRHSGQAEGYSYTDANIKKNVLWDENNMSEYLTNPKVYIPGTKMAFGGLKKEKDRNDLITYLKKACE
Cytochrome c isoform 1 K79I, P00044, sequence (P00044 whole entry K79I, canonical isoform): as the sequence (P00044 whole entry K79V, canonical isoform) above, with V79I counted along it

Cytochrome c isoform 1 K79I, P00044
Tm (pH 3, Thermal, acetate 0.1 M): 22.3 °C
change of melting temperature, mutant - wild type (higher = more stable) (pH 3, Thermal, acetate 0.1 M): 0.8 °C
unfolding enthalpy (van 't Hoff) (pH 3, Thermal, acetate 0.1 M): 33 kcal/mol
Tm [1]: 26.7 °C
change of melting temperature, mutant - wild type (higher = more stable) [1]: 4.1 °C
unfolding enthalpy (van 't Hoff) [1]: 40.8 kcal/mol
Tm (pH 3.5, Thermal, acetate 0.1 M): 31.7 °C
change of melting temperature, mutant - wild type (higher = more stable) (pH 3.5, Thermal, acetate 0.1 M): 1 °C
unfolding enthalpy (van 't Hoff) (pH 3.5, Thermal, acetate 0.1 M): 51.4 kcal/mol
Tm [2]: 35.5 °C
change of melting temperature, mutant - wild type (higher = more stable) [2]: 0.6 °C
unfolding enthalpy (van 't Hoff) [2]: 57.7 kcal/mol
Tm (pH 4, Thermal, acetate 0.1 M): 38.7 °C
change of melting temperature, mutant - wild type (higher = more stable) (pH 4, Thermal, acetate 0.1 M): -2 °C
unfolding enthalpy (van 't Hoff) (pH 4, Thermal, acetate 0.1 M): 61.1 kcal/mol
Tm [3]: 41.3 °C
change of melting temperature, mutant - wild type (higher = more stable) [3]: -1.8 °C
unfolding enthalpy (van 't Hoff) [3]: 67.4 kcal/mol
Tm (pH 4.5, Thermal, acetate 0.1 M): 45.2 °C
change of melting temperature, mutant - wild type (higher = more stable) (pH 4.5, Thermal, acetate 0.1 M): 0.2 °C
unfolding enthalpy (van 't Hoff) (pH 4.5, Thermal, acetate 0.1 M): 69.1 kcal/mol
Tm [4]: 46.9 °C
change of melting temperature, mutant - wild type (higher = more stable) [4]: -1.7 °C
unfolding enthalpy (van 't Hoff) [4]: 73.8 kcal/mol
Tm (pH 5, Thermal, acetate 0.1 M): 47.7 °C
change of melting temperature, mutant - wild type (higher = more stable) (pH 5, Thermal, acetate 0.1 M): -5 °C
unfolding enthalpy (van 't Hoff) (pH 5, Thermal, acetate 0.1 M): 77.4 kcal/mol
ddG of mutation (higher = less stable) [5]: 1.19 kcal/mol
denaturant m value [5]: 4.29 kcal/mol/M
unfolding free energy [5]: 4.47 kcal/mol

Cytochrome c isoform 1 K79V, P00044
Tm (pH 3, Thermal, acetate 0.1 M): 22.7 °C
change of melting temperature, mutant - wild type (higher = more stable) (pH 3, Thermal, acetate 0.1 M): 1.2 °C
unfolding enthalpy (van 't Hoff) (pH 3, Thermal, acetate 0.1 M): 37 kcal/mol
Tm [1]: 28.7 °C
change of melting temperature, mutant - wild type (higher = more stable) [1]: 6.1 °C
unfolding enthalpy (van 't Hoff) [1]: 46.3 kcal/mol
Tm (pH 3.5, Thermal, acetate 0.1 M): 31.4 °C
change of melting temperature, mutant - wild type (higher = more stable) (pH 3.5, Thermal, acetate 0.1 M): 0.7 °C
unfolding enthalpy (van 't Hoff) (pH 3.5, Thermal, acetate 0.1 M): 47.3 kcal/mol
Tm [2]: 36.6 °C
change of melting temperature, mutant - wild type (higher = more stable) [2]: 1.7 °C
unfolding enthalpy (van 't Hoff) [2]: 58.5 kcal/mol
Tm (pH 4, Thermal, acetate 0.1 M): 38.9 °C
change of melting temperature, mutant - wild type (higher = more stable) (pH 4, Thermal, acetate 0.1 M): -1.8 °C
unfolding enthalpy (van 't Hoff) (pH 4, Thermal, acetate 0.1 M): 60.2 kcal/mol
Tm [3]: 42.9 °C
change of melting temperature, mutant - wild type (higher = more stable) [3]: -0.2 °C
unfolding enthalpy (van 't Hoff) [3]: 64.8 kcal/mol
ddG of mutation (higher = less stable) [6]: -0.1 kcal/mol
heat capacity change of unfolding [6]: 1.5 kcal/mol/K
unfolding enthalpy (van 't Hoff) [6]: 40 kcal/mol
unfolding free energy [6]: 3.8 kcal/mol
Tm (pH 4.5, Thermal, acetate 0.1 M): 46.7 °C
change of melting temperature, mutant - wild type (higher = more stable) (pH 4.5, Thermal, acetate 0.1 M): 1.7 °C
unfolding enthalpy (van 't Hoff) (pH 4.5, Thermal, acetate 0.1 M): 72.5 kcal/mol
Tm (pH 5, Thermal, acetate 0.1 M): 49.5 °C
change of melting temperature, mutant - wild type (higher = more stable) (pH 5, Thermal, acetate 0.1 M): -3.2 °C
unfolding enthalpy (van 't Hoff) (pH 5, Thermal, acetate 0.1 M): 75.5 kcal/mol
ddG of mutation (higher = less stable) [5]: 1.38 kcal/mol
denaturant m value [5]: 4.01 kcal/mol/M
unfolding free energy [5]: 4.28 kcal/mol

Source: FireProtDB (doi:10.1002/pro.5560060315)
